Assay results as given in article PMC3858276, “Completion of Proteomic Data Sets by Kd Measurement Using Cell-Free Synthesis of Site-Specifically Labeled Proteins” (PLoS ONE, 2013).
Where no end group is shown, it is not given here.

T1: Rasa1b (Rasa1 sequence 174-447) without biotin (for MST) (UniProt P20936 174-447)
T1 construct: same linear template as m11, cloned into pIX3.0; source: cell-free (RTS500 PM HY kit, plasmid pIX3.0), partly purified by buffer exchange to PBS and ultracentrifugation
T1 sequence (looked up): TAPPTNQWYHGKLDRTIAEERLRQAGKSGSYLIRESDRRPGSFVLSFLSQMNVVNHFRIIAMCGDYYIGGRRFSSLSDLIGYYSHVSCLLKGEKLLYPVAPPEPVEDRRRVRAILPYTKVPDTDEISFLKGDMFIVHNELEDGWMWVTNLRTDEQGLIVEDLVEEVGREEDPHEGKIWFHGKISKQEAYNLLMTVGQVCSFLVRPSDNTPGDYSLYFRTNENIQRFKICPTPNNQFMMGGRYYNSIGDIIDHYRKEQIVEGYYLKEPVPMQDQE

B1: phosphorylated SNAP-ADAP fusion protein (ADAP amino acids 570-690) (domain or fragment, human, UniProt O15117 570-690, looked up)
chain: DYDSLKLKKDSLGAPSRPIEDDQEVYDDVAEQDDISSHSQSGSGGIFPPPPDDDIYDGIEEEDADDGFPAPPKQLDMGDEVYDDVDTSDFPVSSAEMSQGTNVGKAKTEEKDLKKLKKQEK
modifications: phosphotyrosine (in vitro phosphorylation by Fyn kinase, approx. 90% of each phosphorylation site; sites in Table S1); BG-647 dye on the SNAP-tag
notes: adhesion and degranulation promoting adapter protein (ADAP), human, section 570-690; Cloned into the SNAP-tag vector pSET7-26b (NEB) via BamHI, XhoI; also called ADAP-P; phosphorylated ADAP; not shown: SNAP-tag, N-terminal, kept

Key:
Details in all cases: one partner purified
[1] = target: B1; assay: MST; SH2 proteins (only partly purified) serially diluted in 1x PBS with 1.75% (v/v) E. coli extract; fluorescent ADAP at 12 nM; 5 min at RT; Monolith NT.115
[2] = target: T1, Rasa1b (Rasa1 sequence 174-447) without …; assay: as above
[3] = target: T2, Src SH2 domain without biotin (for MST) (UniProt P12931 151-248); assay: MST; as for ADAP, with the fluorescent YEEI fusion and 0.05% Tween-20 (v/v) added to the interaction buffer; SH2 proteins (only partly purified) serially diluted
T2 construct: Src, SH2 domain; same linear template as m6, cloned into pIX3.0; source: cell-free (RTS500 PM HY kit, plasmid pIX3.0), partly purified by buffer exchange to PBS and ultracentrifugation

Row | Binder | Kd [1] [nM] | other results
1 | RasaN (N-terminal SH2 domain of Rasa1) without biotin (for MST) (domain or fragment, UniProt P20936 181-272, looked up, Rasa1, isolated N-terminal SH2 domain; same linear template as m17, cloned into pIX3.0; source: cell-free (RTS500 PM HY kit, plasmid pIX3.0), partly purified by buffer exchange to PBS and ultracentrifugation) WYHGKLDRTIAEERLRQAGKSGSYLIRESDRRPGSFVLSFLSQMNVVNHFRIIAMCGDYYIGGRRFSSLSDLIGYYSHVSCLLKGEKLLYPV | ~100 | –
2 | B1 | – | Kd [2]: ~100 nM
3 | SH2D1A without biotin (for MST) (natural protein, UniProt O60880 1-128, looked up, SH2D1A; same linear template as m7, cloned into pIX3.0; source: cell-free (RTS500 PM HY kit, plasmid pIX3.0), partly purified by buffer exchange to PBS and ultracentrifugation) MDAVAVYHGKISRETGEKLLLATGLDGSYLLRDSESVPGVYCLCVLYHGYIYTYRVSQTETGSWSAETAPGVHKRYFRKIKNLISAFQKPDQGIVIPLQYPVEKKSSARSTQGTTGIREDPDVCLKAP | – | fold weaker binding than the SH2 domains of Src, Lck and Fyn [1]: 6 fold
4 | Lck SH2 domain without biotin (for MST) (domain or fragment, UniProt P06239 127-224, looked up, Lck, SH2 domain; same linear template as m8, cloned into pIX3.0; source: cell-free (RTS500 PM HY kit, plasmid pIX3.0), partly purified by buffer exchange to PBS and ultracentrifugation) WFFKNLSRKDAERQLLAPGNTHGSFLIRESESTAGSFSLSVRDFDQNQGEVVKHYKIRNLDNGGFYISPRITFPGLHELVRHYTNASDGLCTRLSRPC | ~1000 | –
5 | SLP-76 SH2 domain without biotin (for MST) (domain or fragment, UniProt Q13094 422-530, looked up, SLP-76; same linear template as m10, cloned into pIX3.0; source: cell-free (RTS500 PM HY kit, plasmid pIX3.0), partly purified by buffer exchange to PBS and ultracentrifugation) WYVSYITRPEAEAALRKINQDGTFLVRDSSKKTTTNPYVLMVLYKDKVYNIQIRYQKESQVYLLGTGLRGKEDFLSVSDIIDYFRKMPLLLIDGKNRGSRYQCTLTHAA | ~400 | –
6 | THQEEEEPQYEEIPIYL (not fully specified; also: tyrosine phosphorylation in vitro by Fyn, degree not placed, Middle T antigen of Hamster Polyomavirus, aa 315-331 with the Y324EEI motif; also called phosphorylated YEEI; YEEI fusion construct; not shown: SNAP-tag, N-terminal, kept) [phosphorylated SNAP-YEEI fusion (middle T antigen aa 315-331)] | – | Kd [3]: ~515 nM
